Experimental findings from US20100303808A1 (published 2010) are described below.

Assay [1] deals with T1, human CD20 (human, UniProt P11836 1-297).
T1 sequence (looked up): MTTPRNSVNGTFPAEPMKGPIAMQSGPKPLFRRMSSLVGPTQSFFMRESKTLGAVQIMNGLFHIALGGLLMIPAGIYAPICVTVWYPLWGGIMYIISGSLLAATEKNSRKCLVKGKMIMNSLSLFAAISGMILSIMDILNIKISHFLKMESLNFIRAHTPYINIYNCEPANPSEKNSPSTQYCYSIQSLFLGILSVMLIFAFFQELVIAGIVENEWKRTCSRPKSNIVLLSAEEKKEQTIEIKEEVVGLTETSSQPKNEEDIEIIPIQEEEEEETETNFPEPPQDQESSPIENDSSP
The experiment in a line: cell-based or functional assay.

Assay [2] has as its target T1, human CD20. As to the kind of experiment: dissociation of DyLight 488-labelled antibody from Raji cells at 37 C in excess unlabelled antibody, FACS MFI; average of Studies 1 and 2. Set-up: unit not given here. Here is the method: (§1) All antibodies were conjugated to a fluorescein-like fluorophore, DyLight 488, according to vendor instructions (Pierce Cat. No. 53025). Following conjugation, labeled antibody was separated from free dye using chromatography columns provided in the labeling kit. […] Purified labeled antibodies were stored at 4° C. in PBS protected from light.
(§2) To measure antibody dissociation from cells, 10⁶ Raji cells were suspended in PBS containing 1% bovine serum albumin (PBS/BSA). Labeled antibody was added to a final concentration of 5 ug/ml in a volume of 1.0 ml. Following a 30 minute incubation at 37° C., unlabeled (“cold”) antibody was added to a final concentration of 1000 ug/ml. Labeled cells mixed with cold antibody were returned to 37° C. for 4 hours. At 20-minute intervals, 100 ul aliquots of cells were withdrawn from each sample, 400 uL cold PBS/BSA containing propidium iodide was added and mean fluorescence intensity (MFI) of the cell population excluding dead cells (PI⁺) determined by FACS.

Assay [3] has as its target T1, human CD20. The experiment in a line: dissociation of DyLight 488-labelled antibody from Raji cells at 37 C in excess unlabelled antibody, FACS MFI; Study 1. Set-up: unit not given here. Here is the method:
as §1, §2

Assay [4] deals with T1, human CD20. The experiment in a line: dissociation of DyLight 488-labelled antibody from Raji cells at 37 C in excess unlabelled antibody, FACS MFI; Study 2. Set-up: unit not given here. Here is the method: as §1, §2
In assay [5] the target is T1, human CD20. The experiment in a line: ELISA on fixed Raji cells (CD20+), anti-human kappa detection. Here is the method:
Raji cells (80 μl; 1-2×10⁶ cells/ml in 24 ml with fresh growth medium diluted with 0.11 vol of 10×PBS (MPBS) and 8 ml 8% paraformaldehyde (in PBS)) were added to 96-well poly-D-lysine-coated plate and centrifuged at 2500 rpm (Beckman 6L) at 25° C. for 60 minutes. The pellets were washed 4 times with 400 μl PBS, Tween 20 (0.02% v/v). 50 μl of MPBS was added to each well after the final wash, and incubated for 1 hour at room temperature, and the blocking buffer was then discarded. Serial dilutions of the 1F5 antibodies were prepared in MPBS in a separate 96-well plate, transferred to the Raji-cell coated plate and incubated at room temperature for 1 hour. The antibody solution was then discarded and the plates were washed 6 times with 400 μl PBS buffer. Goat anti-human kappa (Sigma A7164) was prepared by diluting the stock antibody solution 1:2000 in MPBS, added to the washed wells, and incubated again at room temperature for 1 hour. The plates were again washed 6 times in 400 μl PBS buffer. 100 μl of K-blue TMB solution was added to each well. The reactions were stopped by added 50 μl red stop after 30 minutes, and the absorbance was read at 650 nm.
Background: In an ELISA, binding on a coated surface is turned into a signal by an enzyme label.

Assay [6] has as its target T1, human CD20. The experiment in a line: cell-based or functional assay. This is another data set of the same source.

B1: 1F5RHA x 1F5RKB11 (antibody, human IgG1, kappa, V domains shown)
VH: QVQLVQSGAEVKKPGASVKVSCKASGYTFTSYNMHWVRQAPGQRLEWIGAIYPGNGDTSYNQKFKGRVTVTRDTSANTAYMELSSLKSEDTAVYYCARSHYGSNYVDYFDYWGQGTLVTVSS
VL: EIVLTQSPSSLSASVGDRVTITCRASSSLSFMHWYQQKPGKAPKPWIYATSNLASGVPSRFSGSGSGTDYTLTISSLQPEDFATYFCHQWSSNPLTFGGGTKVEIKR
notes: also called RHA x RKB11; Variant D
Turning to B1, in the assay with human CD20 [1], the “LogEC50, complement dependent cytotoxicity (CDC) on Raji cells” value (“LogEC50 … on Raji cells” below) is -1.06. In addition, in the assay with human CD20 [2], the “Half-life (dissociation from Raji cells), average” value (“Half-life … average” for short) was 52. Moreover, the “Half-life (dissociation from Raji cells)” value in the assay with human CD20 [3] is 44; in the assay with human CD20 [4], 59.

B2: 1F5RHA x 1F5RKB12 (antibody, human IgG1, kappa, V domains shown)
VH: QVQLVQSGAEVKKPGASVKVSCKASGYTFTSYNMHWVRQAPGQRLEWIGAIYPGNGDTSYNQKFKGRVTVTRDTSANTAYMELSSLKSEDTAVYYCARSHYGSNYVDYFDYWGQGTLVTVSS
VL: EIVLTQSPGTLSLSPGERATLSCRASSSLSFMHWYQQKPGQAPRPWIYATSNLASGIPARFSGSGSGTDYTLTISRLEPEDFAVYFCHQWSSNPLTFGQGTKVELKR
notes: also called RHA x RKB12; Variant F
Turning to B2, the “LogEC50 … on Raji cells” value with human CD20 [1] is -1.13. In addition, the “Half-life … average” value with human CD20 [2] came out at 68. In addition, the “Half-life (dissociation from Raji cells)” value in the assay with human CD20 [3] came out at 72; with human CD20 [4] it was 64.

B3: 1F5RHA x chimeric c1F5VK (antibody, human IgG1, kappa, V domains shown)
VH: QVQLVQSGAEVKKPGASVKVSCKASGYTFTSYNMHWVRQAPGQRLEWIGAIYPGNGDTSYNQKFKGRVTVTRDTSANTAYMELSSLKSEDTAVYYCARSHYGSNYVDYFDYWGQGTLVTVSS
VL: QIVLSQSPAILSASPGEKVTMTCRASSSLSFMHWYQQKPGSSPKPWIYATSNLASGVPARFSGSGSGTSYSLTISRVEAEDAATYFCHQWSSNPLTFGAGTKVEIKR
notes: IgG1 kappa from HEK293T conditioned medium; also called chimeric VK x 1F5RHA
On to B3, for which the binding result in the assay with human CD20 [5] is “binds”.

B4: 1F5RHA x 1F5RKG11 (antibody, human IgG1, kappa, V domains shown)
VH: QVQLVQSGAEVKKPGASVKVSCKASGYTFTSYNMHWVRQAPGQRLEWIGAIYPGNGDTSYNQKFKGRVTVTRDTSANTAYMELSSLKSEDTAVYYCARSHYGSNYVDYFDYWGQGTLVTVSS
VL: EIVLTQSPSSLSASVGDRVTITCRASSSLSFMHWYQQKPGKAPKPLIYATSNLASGVPSRFSGSGSGTDFTLTISSLQPEDFATYYCHQWSSNPLTFGGGTKVEIKR
notes: also called RHA x RKG11; 1F5RKG11 x 1F5RHA
With B4, in the assay with human CD20 [6], the “complement dependent cytotoxicity (CDC) on Raji cells, relative to rituximab” value is roughly 10 times less than rituximab. For the same molecule, the “LogEC50 … on Raji cells” value with human CD20 [1] is -0.773. In addition, the “Half-life … average” value with human CD20 [2] stood at 65. In addition, the “Half-life (dissociation from Raji cells)” value with human CD20 [3] came out at 67; in the assay with human CD20 [4] it was 63.

B5: 1F5RHB x chimeric c1F5VK (antibody, human IgG1, kappa, V domains shown)
VH: QVQLVQSGAEVKKPGASVKVSCKASGYTFTSYNMHWVRQAPGQRLEWIGAIYPGNGDTSYNQKFKGRATLTADKSANTAYMELSSLKSEDTAVYYCARSHYGSNYVDYFDYWGQGTLVTVSS
VL: QIVLSQSPAILSASPGEKVTMTCRASSSLSFMHWYQQKPGSSPKPWIYATSNLASGVPARFSGSGSGTSYSLTISRVEAEDAATYFCHQWSSNPLTFGAGTKVEIKR
notes: 1F5RHB is 1F5RHA with four back mutations
For B5, the binding result in the assay with human CD20 [5] is listed as “binds”.

B6: chimeric c1F5VH x 1F5RKB11 (antibody, human IgG1, kappa, V domains shown)
VH: QVQLRQPGAELVKPGASVKMSCKASGYTFTSYNMHWVKQTPGQGLEWIGAIYPGNGDTSYNQKFKGKATLTADKSSSTAYMQLSSLTSEDSAVYYCARSHYGSNYVDYFDYWGQGTLVTVST
VL: EIVLTQSPSSLSASVGDRVTITCRASSSLSFMHWYQQKPGKAPKPWIYATSNLASGVPSRFSGSGSGTDYTLTISSLQPEDFATYFCHQWSSNPLTFGGGTKVEIKR
notes: IgG1 kappa from HEK293T conditioned medium; also called chimeric VH x 1F5RKB11
In the case of B6, the binding result with human CD20 [5] is “binds”.

B7: 1F5RHA x 1F5RKF12 (antibody, human IgG1, kappa, V domains shown)
VH: QVQLVQSGAEVKKPGASVKVSCKASGYTFTSYNMHWVRQAPGQRLEWIGAIYPGNGDTSYNQKFKGRVTVTRDTSANTAYMELSSLKSEDTAVYYCARSHYGSNYVDYFDYWGQGTLVTVSS
VL: EIVLTQSPGTLSLSPGERATLSCRASSSLSFMHWYQQKPGQAPRPLIYATSNLASGIPARFSGSGSGTDFTLTISRLEPEDFAVYFCHQWSSNPLTFGQGTKVELKR
notes: also called RHA x RKF12; 1F5RKF12 x 1F5RHA
As to B7, the “LogEC50 … on Raji cells” value in the assay with human CD20 [1] was -1.15. In the assay with human CD20 [2], the “Half-life … average” value was 66. Further, the “Half-life (dissociation from Raji cells)” value is 67 in the assay with human CD20 [3] and 65 in the assay with human CD20 [4].

B8: rituximab (antibody, V domains shown)
VH: QVQLQQPGAELVKPGASVKMSCKASGYTFTSYNMHWVKQTPGRGLEWIGAIYPGNGDTSYNQKFKGKATLTADKSSSTAYMQLSSLTSEDSAVYYCARSTYYGGDWYFNVWGAGTTVTVSA
VL: QIVLSQSPAILSASPGEKVTMTCRASSSVSYIHWFQQKPGSSPKPWIYATSNLASGVPVRFSGSGSGTSYSLTISRVEAEDAATYYCQQWTSNPPTFGGGTKLEIK
In the case of B8, in the assay with human CD20 [1], the “LogEC50 … on Raji cells” value was -1.73. The “Half-life … average” value in the assay with human CD20 [2] was found to be 24. Besides, the “Half-life (dissociation from Raji cells)” value in the assay with human CD20 [3] and with human CD20 [4] was 24 each time.

B9: chimeric antibody c1F5 (c1F5VH x c1F5VK) (antibody, human IgG1, kappa, V domains shown)
VH: QVQLRQPGAELVKPGASVKMSCKASGYTFTSYNMHWVKQTPGQGLEWIGAIYPGNGDTSYNQKFKGKATLTADKSSSTAYMQLSSLTSEDSAVYYCARSHYGSNYVDYFDYWGQGTLVTVST
VL: QIVLSQSPAILSASPGEKVTMTCRASSSLSFMHWYQQKPGSSPKPWIYATSNLASGVPARFSGSGSGTSYSLTISRVEAEDAATYFCHQWSSNPLTFGAGTKVEIKR
notes: Mouse 1F5 variable regions on human gamma1 / kappa constant regions; also called chimeric 1F5
For B9, in the assay with human CD20 [1], the “LogEC50 … on Raji cells” value was -0.781. Moreover, the “Half-life … average” value with human CD20 [2] turned out to be 58. Besides, the “Half-life (dissociation from Raji cells)” value with human CD20 [3] was determined as 59; with human CD20 [4], 57.

B10: chimeric c1F5VH x 1F5RKB12 (antibody, human IgG1, kappa, V domains shown)
VH: QVQLRQPGAELVKPGASVKMSCKASGYTFTSYNMHWVKQTPGQGLEWIGAIYPGNGDTSYNQKFKGKATLTADKSSSTAYMQLSSLTSEDSAVYYCARSHYGSNYVDYFDYWGQGTLVTVST
VL: EIVLTQSPGTLSLSPGERATLSCRASSSLSFMHWYQQKPGQAPRPWIYATSNLASGIPARFSGSGSGTDYTLTISRLEPEDFAVYFCHQWSSNPLTFGQGTKVELKR
notes: IgG1 kappa from HEK293T conditioned medium
Regarding B10, the binding result in the assay with human CD20 [5] is reported as “binds”.
